This is an account of results in PMC11381329 (Nucleic Acids Research, 2024).

This experiment has as its target T1, GST-UTP13^1–320 (human, UniProt Q12788 1-320).
T1 sequence: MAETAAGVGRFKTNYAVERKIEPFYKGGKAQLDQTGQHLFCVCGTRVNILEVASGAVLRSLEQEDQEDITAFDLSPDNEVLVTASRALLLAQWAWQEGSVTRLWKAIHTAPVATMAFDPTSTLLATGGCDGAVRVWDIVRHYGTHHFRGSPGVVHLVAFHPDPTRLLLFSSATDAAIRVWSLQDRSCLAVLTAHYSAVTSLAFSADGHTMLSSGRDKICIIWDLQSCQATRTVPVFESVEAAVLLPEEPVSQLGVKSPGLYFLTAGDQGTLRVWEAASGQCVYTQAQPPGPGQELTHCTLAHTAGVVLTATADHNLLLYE
Briefly: pull-down.

B1: HIS-UTP3^1–319 (domain or fragment)
chain: MVGRSRRRGAAKWAAVRAKAGPTLTDENGDDLGLPPSPGDTSYYQDQVDDFHEARSRAALAKGWNEVQSGDEEDGEEEEEEVLALDMDDEDDEDGGNAGEEEEEENADDDGGSSVQSEAEASVDPSLSWGQRKKLYYDTDYGSKSRGRQSQQEAEEEEREEEEEAQIIQRRLAQALQEDDFGVAWVEAFAKPVPQVDEAETRVVKDLAKVSVKEKLKMLRKESPELLELIEDLKVKLTEVKDELEPLLELVEQGIIPPGKGSQYLRTKYNLYLNYCSNISFYLILKARRVPAHGHPVIERLVTYRNLINKLSVVDQKLS
For B1, the binding result is “binds”.
